Results published in publication PMC8429977, “Phosphorylation of slit diaphragm proteins NEPHRIN and NEPH1 upon binding of HGF promotes podocyte repair” (The Journal of Biological Chemistry, 2021).
Blank lines part the entries; values can stand above or below the binder they belong to.

Molecular target: T1, purified human recombinant HGF (human, UniProt P14210 32-728)
T1 construct: hepatocyte growth factor, human, recombinant, purified; also called hepatocyte growth factor; recombinant human active HGF; source: bought: Sigma
T1 sequence (P14210 32-728): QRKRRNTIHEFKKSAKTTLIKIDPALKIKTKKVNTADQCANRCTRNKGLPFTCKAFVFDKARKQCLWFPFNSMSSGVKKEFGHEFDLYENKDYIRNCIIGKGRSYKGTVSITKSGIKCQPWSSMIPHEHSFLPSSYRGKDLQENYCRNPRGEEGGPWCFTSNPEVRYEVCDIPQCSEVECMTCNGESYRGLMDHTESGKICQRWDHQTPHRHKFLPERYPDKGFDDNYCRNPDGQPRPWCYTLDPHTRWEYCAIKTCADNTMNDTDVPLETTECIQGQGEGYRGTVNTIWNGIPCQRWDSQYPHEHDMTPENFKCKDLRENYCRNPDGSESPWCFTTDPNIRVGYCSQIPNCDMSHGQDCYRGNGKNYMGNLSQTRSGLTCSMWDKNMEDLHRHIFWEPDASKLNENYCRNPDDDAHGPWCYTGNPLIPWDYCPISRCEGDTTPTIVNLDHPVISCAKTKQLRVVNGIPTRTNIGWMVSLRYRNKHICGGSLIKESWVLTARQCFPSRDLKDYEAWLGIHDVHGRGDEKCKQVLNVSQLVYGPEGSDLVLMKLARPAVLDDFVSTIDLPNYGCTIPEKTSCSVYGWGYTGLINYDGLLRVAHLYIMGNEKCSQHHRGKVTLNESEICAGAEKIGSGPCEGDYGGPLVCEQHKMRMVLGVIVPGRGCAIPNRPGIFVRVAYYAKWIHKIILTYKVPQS
Experiment: far-Western, overlay or dot blot; 300 ng peptide spotted on nitrocellulose, blocked with fat-free milk, incubated with 1 μg recombinant purified HGF in 5% BSA in PBS at 4 °C, detected with anti-HGF antibody
Conditions: both partners purified

binding result: binds
B1: NEPHRIN Peptide-1 (peptide)
peptide: PDITILLSGQTISDISANVNEGSQQKL
notes: also called NEPHRIN-P1; NEPHRIN P1; source: synthetic peptide (Fmoc solid phase, HPLC purified)

binding result: binds
B2: NEPH1 Peptide-1 (peptide)
peptide: QEGERVVFTCQATANPEIL
notes: also called NEPH-P1; NEPH1-P1; source: synthetic peptide (Fmoc solid phase, HPLC purified)
